According to US20180155451A1 (published 2018):

Target: T1, FcγRIIa R (extracellular domain with a His tag at the C terminus) (human, UniProt P12318 34-217)
T1 construct: extracellular domain; expressed in FreeStyle293 cells; also called FcgRIIa R; FcγRIIa type R; not shown: His tag at the C terminus
T1 sequence (looked up): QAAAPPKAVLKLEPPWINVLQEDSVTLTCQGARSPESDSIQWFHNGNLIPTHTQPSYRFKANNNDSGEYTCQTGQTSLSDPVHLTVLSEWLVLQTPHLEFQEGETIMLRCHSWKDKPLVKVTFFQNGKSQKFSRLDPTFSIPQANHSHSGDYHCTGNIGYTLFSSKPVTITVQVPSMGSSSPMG
Experiment: SPR Biacore, relative binding

B1: GpH7-B3 variant S267_09D/GpL16-k0 (antibody, human IgG1, kappa)
heavy: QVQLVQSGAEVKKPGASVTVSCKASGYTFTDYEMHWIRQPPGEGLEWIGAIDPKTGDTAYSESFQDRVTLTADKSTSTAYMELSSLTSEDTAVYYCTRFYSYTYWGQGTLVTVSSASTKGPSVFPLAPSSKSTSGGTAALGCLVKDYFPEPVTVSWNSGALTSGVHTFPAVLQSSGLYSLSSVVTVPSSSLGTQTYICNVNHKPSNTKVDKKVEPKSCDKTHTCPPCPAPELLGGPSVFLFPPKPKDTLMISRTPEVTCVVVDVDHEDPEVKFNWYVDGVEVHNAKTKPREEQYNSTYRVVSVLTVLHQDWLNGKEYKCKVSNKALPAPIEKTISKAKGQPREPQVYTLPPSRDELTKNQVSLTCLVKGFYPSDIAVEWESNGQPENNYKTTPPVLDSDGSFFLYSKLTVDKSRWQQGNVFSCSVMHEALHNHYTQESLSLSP
light: DIVMTQSPLSLPVTPGEPASISCQASESLVHSNRNTYLHWYLQKPGQSPQLLIYKVSNRFSGVPDRFSGSGSGTDFTLKISRVEAEDVGVYYCSQNTHVPPTFGQGTKVEIERTVAAPSVFIFPPSDEQLKSGTASVVCLLNNFYPREAKVQWKVDNALQSGNSQESVTEQDSKDSTYSLSSTLTLSKADYEKHKVYACEVTHQGLSSPVTKSFNRGEC
notes: homodimerized; mutation in both H chains; also called Ho Ab
B1 was tested. Which Ho/Con_2aR did it give?
Its Ho/Con_2aR is 167 % of GpH7-B3/GpL16-k0 (=100).

B2: GpH7-A5/GpH7-B3 variant G237_20W/GpL16-k0 (antibody, human IgG1, kappa)
heavy 1: not shown
heavy 2: not shown
light: B1 light
notes: heterodimerized; mutation in one H chain; also called He Ab
B2 was tested. Which He/Con_2aR did it give?
The He/Con_2aR was 138 % of GpH7-A5/GpH7-B3/GpL16-k0 (=100).

B3: GpH7-B3 variant S337_16H/GpL16-k0 (antibody, human IgG1, kappa)
heavy: not shown
light: B1 light
notes: as for B1
How did the Ho/Con_2aR turn out when B3 was run?
The Ho/Con_2aR was 107 % of GpH7-B3/GpL16-k0 (=100).

B4: GpH7-B3 variant P331_20W/GpL16-k0 (antibody, human IgG1, kappa)
heavy: not shown
light: B1 light
notes: as for B1
With B4 as the binder, how does the Ho/Con_2aR read?
Its Ho/Con_2aR is 102 % of GpH7-B3/GpL16-k0 (=100).

B5: GpH7-B3 variant T335_02A/GpL16-k0 (antibody, human IgG1, kappa)
heavy: not shown
light: B1 light
notes: as for B1
Which Ho/Con_2aR does the source give for B5 here?
Its Ho/Con_2aR is 102 % of GpH7-B3/GpL16-k0 (=100).

B6: GpH7-B3 variant K334_05P/GpL16-k0 (antibody, human IgG1, kappa)
heavy: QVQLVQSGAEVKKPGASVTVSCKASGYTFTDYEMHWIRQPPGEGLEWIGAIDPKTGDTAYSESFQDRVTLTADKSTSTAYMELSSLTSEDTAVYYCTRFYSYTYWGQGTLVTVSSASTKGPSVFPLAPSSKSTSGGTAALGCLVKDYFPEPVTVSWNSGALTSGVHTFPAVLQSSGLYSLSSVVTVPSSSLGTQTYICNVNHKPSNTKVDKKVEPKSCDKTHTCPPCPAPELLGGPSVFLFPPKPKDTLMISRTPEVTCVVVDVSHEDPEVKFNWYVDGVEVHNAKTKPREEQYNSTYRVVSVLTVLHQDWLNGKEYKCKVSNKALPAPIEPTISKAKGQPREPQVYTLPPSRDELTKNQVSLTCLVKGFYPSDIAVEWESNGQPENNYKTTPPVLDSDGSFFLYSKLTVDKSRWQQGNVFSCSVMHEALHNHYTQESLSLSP
light: B1 light
notes: as for B1
Which Ho/Con_2aR does the source give for B6 here?
The Ho/Con_2aR was 102 % of GpH7-B3/GpL16-k0 (=100).

B7: GpH7-B3 variant L328_13S/GpL16-k0 (antibody, human IgG1, kappa)
heavy: not shown
light: B1 light
notes: as for B1
Which Ho/Con_2aR does the source give for B7 here?
The Ho/Con_2aR was 108 % of GpH7-B3/GpL16-k0 (=100).

B8: GpH7-B3 variant S337_09D/GpL16-k0 (antibody, human IgG1, kappa)
heavy: not shown
light: B1 light
notes: as for B1
Which Ho/Con_2aR does the source give for B8 here?
Its Ho/Con_2aR is 114 % of GpH7-B3/GpL16-k0 (=100).

B9: GpH7-B3 variant S324_06M/GpL16-k0 (antibody, human IgG1, kappa)
heavy: not shown
light: B1 light
notes: as for B1
Which Ho/Con_2aR does the source give for B9 here?
Its Ho/Con_2aR is 118 % of GpH7-B3/GpL16-k0 (=100).

B10: GpH7-A5/GpH7-B3 variant A330_12R/GpL16-k0 (antibody, human IgG1, kappa)
heavy 1: not shown
heavy 2: not shown
light: B1 light
notes: as for B2
With B10 as the binder, how does the He/Con_2aR read?
Its He/Con_2aR is 104 % of GpH7-A5/GpH7-B3/GpL16-k0 (=100).

B11: GpH7-B3 variant S337_10E/GpL16-k0 (antibody, human IgG1, kappa)
heavy: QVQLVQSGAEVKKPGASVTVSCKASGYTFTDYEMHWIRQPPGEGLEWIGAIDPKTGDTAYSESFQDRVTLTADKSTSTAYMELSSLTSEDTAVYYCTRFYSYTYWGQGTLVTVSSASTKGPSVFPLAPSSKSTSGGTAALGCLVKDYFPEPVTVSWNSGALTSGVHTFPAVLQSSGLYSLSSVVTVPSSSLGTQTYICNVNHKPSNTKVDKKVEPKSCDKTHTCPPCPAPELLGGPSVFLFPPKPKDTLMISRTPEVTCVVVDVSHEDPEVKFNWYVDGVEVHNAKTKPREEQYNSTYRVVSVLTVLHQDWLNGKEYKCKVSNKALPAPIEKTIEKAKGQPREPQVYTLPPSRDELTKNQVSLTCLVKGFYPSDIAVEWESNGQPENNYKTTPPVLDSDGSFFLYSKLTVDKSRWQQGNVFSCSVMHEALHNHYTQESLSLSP
light: B1 light
notes: as for B1
For B11, which Ho/Con_2aR is on record?
Its Ho/Con_2aR is 110 % of GpH7-B3/GpL16-k0 (=100).

B12: GpH7-B3 variant K334_19Q/GpL16-k0 (antibody, human IgG1, kappa)
heavy: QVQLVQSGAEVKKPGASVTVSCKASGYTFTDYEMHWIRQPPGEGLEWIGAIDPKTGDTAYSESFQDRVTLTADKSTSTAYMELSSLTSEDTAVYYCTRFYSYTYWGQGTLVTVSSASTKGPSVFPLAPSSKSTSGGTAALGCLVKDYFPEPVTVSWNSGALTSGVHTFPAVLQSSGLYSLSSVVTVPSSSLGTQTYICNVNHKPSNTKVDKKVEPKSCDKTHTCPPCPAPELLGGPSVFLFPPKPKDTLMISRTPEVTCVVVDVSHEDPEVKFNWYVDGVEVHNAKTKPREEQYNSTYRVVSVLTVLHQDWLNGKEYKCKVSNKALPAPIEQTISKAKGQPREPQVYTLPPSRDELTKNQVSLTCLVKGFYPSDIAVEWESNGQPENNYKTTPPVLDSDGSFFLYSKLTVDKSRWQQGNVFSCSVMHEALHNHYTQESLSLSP
light: B1 light
notes: as for B1
Which Ho/Con_2aR does the source give for B12 here?
The Ho/Con_2aR was 108 % of GpH7-B3/GpL16-k0 (=100).

B13: GpH7-A5/GpH7-B3 variant G237_04F/GpL16-k0 (antibody, human IgG1, kappa)
heavy 1: not shown
heavy 2: not shown
light: B1 light
notes: as for B2
For B13, which He/Con_2aR is on record?
Its He/Con_2aR is 126 % of GpH7-A5/GpH7-B3/GpL16-k0 (=100).

B14: GpH7-B3 variant S337_20W/GpL16-k0 (antibody, human IgG1, kappa)
heavy: not shown
light: B1 light
notes: as for B1
With B14 as the binder, how does the Ho/Con_2aR read?
The Ho/Con_2aR was 105 % of GpH7-B3/GpL16-k0 (=100).

B15: GpH7-B3 variant K334_10E/GpL16-k0 (antibody, human IgG1, kappa)
heavy: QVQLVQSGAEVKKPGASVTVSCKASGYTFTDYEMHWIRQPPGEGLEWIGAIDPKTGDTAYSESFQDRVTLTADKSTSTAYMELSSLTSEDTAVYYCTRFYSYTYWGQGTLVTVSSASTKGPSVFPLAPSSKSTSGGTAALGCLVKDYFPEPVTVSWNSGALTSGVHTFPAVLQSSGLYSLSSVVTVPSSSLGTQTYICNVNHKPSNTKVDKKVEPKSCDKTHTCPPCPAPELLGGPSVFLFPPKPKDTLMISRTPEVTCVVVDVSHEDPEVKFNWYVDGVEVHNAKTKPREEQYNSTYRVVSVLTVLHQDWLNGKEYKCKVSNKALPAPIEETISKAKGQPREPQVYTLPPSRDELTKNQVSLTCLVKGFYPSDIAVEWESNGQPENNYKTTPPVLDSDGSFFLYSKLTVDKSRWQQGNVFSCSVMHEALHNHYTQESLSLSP
light: B1 light
notes: as for B1
B15 was tested. Which Ho/Con_2aR did it give?
Its Ho/Con_2aR is 106 % of GpH7-B3/GpL16-k0 (=100).

B16: GpH7-B3 variant S337_19Q/GpL16-k0 (antibody, human IgG1, kappa)
heavy: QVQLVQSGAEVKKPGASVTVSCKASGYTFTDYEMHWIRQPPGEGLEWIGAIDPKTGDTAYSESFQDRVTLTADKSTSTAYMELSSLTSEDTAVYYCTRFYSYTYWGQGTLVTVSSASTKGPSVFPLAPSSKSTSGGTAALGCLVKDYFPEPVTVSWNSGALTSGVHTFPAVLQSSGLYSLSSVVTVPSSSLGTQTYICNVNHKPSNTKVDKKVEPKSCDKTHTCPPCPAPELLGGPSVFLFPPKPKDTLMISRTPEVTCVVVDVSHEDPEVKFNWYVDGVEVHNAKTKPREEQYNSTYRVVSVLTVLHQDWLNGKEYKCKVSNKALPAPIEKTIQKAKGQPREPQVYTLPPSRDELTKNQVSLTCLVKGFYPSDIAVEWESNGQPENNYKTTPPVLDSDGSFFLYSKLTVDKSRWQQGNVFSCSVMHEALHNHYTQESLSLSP
light: B1 light
notes: as for B1
For B16, which Ho/Con_2aR is on record?
The Ho/Con_2aR was 102 % of GpH7-B3/GpL16-k0 (=100).

B17: GpH7-B3 variant S267_19Q/GpL16-k0 (antibody, human IgG1, kappa)
heavy: not shown
light: B1 light
notes: as for B1
B17 was tested. Which Ho/Con_2aR did it give?
The Ho/Con_2aR was 110 % of GpH7-B3/GpL16-k0 (=100).

B18: GpH7-B3 variant L235_20W/GpL16-k0 (antibody, human IgG1, kappa)
heavy: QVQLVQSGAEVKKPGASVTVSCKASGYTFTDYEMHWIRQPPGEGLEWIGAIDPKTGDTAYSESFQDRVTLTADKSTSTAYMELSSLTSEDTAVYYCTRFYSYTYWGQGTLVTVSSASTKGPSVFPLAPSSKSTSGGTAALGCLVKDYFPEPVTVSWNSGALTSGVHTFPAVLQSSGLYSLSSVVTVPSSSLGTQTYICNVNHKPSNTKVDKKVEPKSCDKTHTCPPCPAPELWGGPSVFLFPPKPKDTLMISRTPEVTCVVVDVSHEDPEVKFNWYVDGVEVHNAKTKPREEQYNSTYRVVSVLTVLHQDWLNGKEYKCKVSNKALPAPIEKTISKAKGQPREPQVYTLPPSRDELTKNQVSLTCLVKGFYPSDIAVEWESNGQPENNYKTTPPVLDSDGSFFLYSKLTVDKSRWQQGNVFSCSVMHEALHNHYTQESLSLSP
light: B1 light
notes: as for B1
With B18 as the binder, how does the Ho/Con_2aR read?
The Ho/Con_2aR was 114 % of GpH7-B3/GpL16-k0 (=100).

B19: GpH7-B3 variant K326_15Y/GpL16-k0 (antibody, human IgG1, kappa)
heavy: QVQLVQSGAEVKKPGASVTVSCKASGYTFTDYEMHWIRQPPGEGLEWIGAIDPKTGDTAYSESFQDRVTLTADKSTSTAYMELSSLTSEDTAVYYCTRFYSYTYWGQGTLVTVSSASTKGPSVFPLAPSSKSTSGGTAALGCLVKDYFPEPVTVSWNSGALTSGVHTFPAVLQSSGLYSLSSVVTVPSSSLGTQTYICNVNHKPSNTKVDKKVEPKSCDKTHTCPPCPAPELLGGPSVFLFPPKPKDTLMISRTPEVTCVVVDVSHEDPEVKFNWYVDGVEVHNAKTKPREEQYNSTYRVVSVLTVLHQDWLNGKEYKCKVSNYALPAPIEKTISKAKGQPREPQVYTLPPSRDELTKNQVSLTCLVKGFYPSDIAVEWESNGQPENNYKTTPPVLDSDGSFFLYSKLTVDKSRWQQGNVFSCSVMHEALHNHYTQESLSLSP
light: B1 light
notes: as for B1
With B19 as the binder, how does the Ho/Con_2aR read?
The Ho/Con_2aR was 134 % of GpH7-B3/GpL16-k0 (=100).

B20: GpH7-B3 variant S337_06M/GpL16-k0 (antibody, human IgG1, kappa)
heavy: not shown
light: B1 light
notes: as for B1
B20 was tested. Which Ho/Con_2aR did it give?
Its Ho/Con_2aR is 101 % of GpH7-B3/GpL16-k0 (=100).

B21: GpH7-B3 variant P331_04F/GpL16-k0 (antibody, human IgG1, kappa)
heavy: not shown
light: B1 light
notes: as for B1
For B21, which Ho/Con_2aR is on record?
The Ho/Con_2aR was 106 % of GpH7-B3/GpL16-k0 (=100).

B22: GpH7-B3 variant K326_08L/GpL16-k0 (antibody, human IgG1, kappa)
heavy: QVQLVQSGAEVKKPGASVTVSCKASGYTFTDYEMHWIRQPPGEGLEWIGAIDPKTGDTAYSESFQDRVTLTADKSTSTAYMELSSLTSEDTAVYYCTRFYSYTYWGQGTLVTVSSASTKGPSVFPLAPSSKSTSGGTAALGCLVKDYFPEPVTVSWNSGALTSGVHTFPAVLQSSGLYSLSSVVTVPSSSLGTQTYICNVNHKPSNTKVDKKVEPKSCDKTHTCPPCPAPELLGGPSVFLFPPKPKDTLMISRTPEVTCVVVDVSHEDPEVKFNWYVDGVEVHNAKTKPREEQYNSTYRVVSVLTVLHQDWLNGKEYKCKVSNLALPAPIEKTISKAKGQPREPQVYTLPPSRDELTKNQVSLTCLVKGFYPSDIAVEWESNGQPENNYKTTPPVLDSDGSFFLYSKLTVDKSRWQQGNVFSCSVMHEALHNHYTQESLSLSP
light: B1 light
notes: as for B1
With B22 as the binder, how does the Ho/Con_2aR read?
The Ho/Con_2aR was 131 % of GpH7-B3/GpL16-k0 (=100).

B23: GpH7-B3 variant K334_13S/GpL16-k0 (antibody, human IgG1, kappa)
heavy: not shown
light: B1 light
notes: as for B1
Which Ho/Con_2aR does the source give for B23 here?
The Ho/Con_2aR was 106 % of GpH7-B3/GpL16-k0 (=100).

B24: GpH7-A5/GpH7-B3 variant A330_01G/GpL16-k0 (antibody, human IgG1, kappa)
heavy 1: not shown
heavy 2: not shown
light: B1 light
notes: as for B2
Which He/Con_2aR does the source give for B24 here?
The He/Con_2aR was 109 % of GpH7-A5/GpH7-B3/GpL16-k0 (=100).

B25: GpH7-B3 variant S267_03V/GpL16-k0 (antibody, human IgG1, kappa)
heavy: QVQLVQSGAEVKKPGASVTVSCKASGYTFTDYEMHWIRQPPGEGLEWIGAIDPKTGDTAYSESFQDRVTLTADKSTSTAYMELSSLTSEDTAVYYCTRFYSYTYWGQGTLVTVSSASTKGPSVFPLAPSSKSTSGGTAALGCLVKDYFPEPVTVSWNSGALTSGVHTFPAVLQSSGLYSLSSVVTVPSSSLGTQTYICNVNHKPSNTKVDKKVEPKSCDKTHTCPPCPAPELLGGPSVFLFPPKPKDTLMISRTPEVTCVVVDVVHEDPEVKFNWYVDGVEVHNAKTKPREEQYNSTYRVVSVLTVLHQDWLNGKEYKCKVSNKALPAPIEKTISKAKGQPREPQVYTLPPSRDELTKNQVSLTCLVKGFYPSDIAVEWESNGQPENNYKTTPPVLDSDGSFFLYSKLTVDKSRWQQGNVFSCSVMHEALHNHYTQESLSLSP
light: B1 light
notes: as for B1
B25 was tested. Which Ho/Con_2aR did it give?
Its Ho/Con_2aR is 115 % of GpH7-B3/GpL16-k0 (=100).

B26: GpH7-B3 variant K326_20W/GpL16-k0 (antibody, human IgG1, kappa)
heavy: not shown
light: B1 light
notes: as for B1
For B26, which Ho/Con_2aR is on record?
Its Ho/Con_2aR is 120 % of GpH7-B3/GpL16-k0 (=100).

B27: GpH7-A5/GpH7-B3 variant K326_07I/GpL16-k0 (antibody, human IgG1, kappa)
heavy 1: not shown
heavy 2: not shown
light: B1 light
notes: as for B2
For B27, which He/Con_2aR is on record?
Its He/Con_2aR is 147 % of GpH7-A5/GpH7-B3/GpL16-k0 (=100).

B28: GpH7-B3 variant P331_16H/GpL16-k0 (antibody, human IgG1, kappa)
heavy: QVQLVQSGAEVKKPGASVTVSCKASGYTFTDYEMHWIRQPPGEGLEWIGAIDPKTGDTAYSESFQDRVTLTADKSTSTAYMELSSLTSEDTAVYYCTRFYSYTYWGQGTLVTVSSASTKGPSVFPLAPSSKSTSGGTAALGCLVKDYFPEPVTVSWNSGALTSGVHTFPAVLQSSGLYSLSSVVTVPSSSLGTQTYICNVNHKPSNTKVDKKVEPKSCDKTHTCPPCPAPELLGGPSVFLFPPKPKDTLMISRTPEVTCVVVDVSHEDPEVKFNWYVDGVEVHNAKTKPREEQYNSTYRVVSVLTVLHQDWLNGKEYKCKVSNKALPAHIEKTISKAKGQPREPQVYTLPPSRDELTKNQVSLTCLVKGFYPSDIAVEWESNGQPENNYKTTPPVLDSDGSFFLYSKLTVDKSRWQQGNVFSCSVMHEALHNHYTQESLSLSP
light: B1 light
notes: as for B1
For B28, which Ho/Con_2aR is on record?
Its Ho/Con_2aR is 100 % of GpH7-B3/GpL16-k0 (=100).

B29: GpH7-B3 variant K334_08L/GpL16-k0 (antibody, human IgG1, kappa)
heavy: not shown
light: B1 light
notes: as for B1
B29 was tested. Which Ho/Con_2aR did it give?
Its Ho/Con_2aR is 105 % of GpH7-B3/GpL16-k0 (=100).

B30: GpH7-A5/GpH7-B3 variant H268_01G/GpL16-k0 (antibody, human IgG1, kappa)
heavy 1: not shown
heavy 2: not shown
light: B1 light
notes: as for B2
With B30 as the binder, how does the He/Con_2aR read?
The He/Con_2aR was 124 % of GpH7-A5/GpH7-B3/GpL16-k0 (=100).
